Measurements as given in patent publication US20250034239A1 (LINNO PHARMACEUTICALS, published 2025).

B1: SLN12083 VHH-Fc (Fc fusion)
VHH: EVQLVESGGGLVQPGGSLRLSCAASEYTSSSYCMAWIRQAPGKGLEGVAAIDTDGSTSYTDSVKGRFTISRDNSKNTLYLQMNSLRAEDTAVYYCAAAPWLLAYGDYCVTRPDFGEWGQGTLVTVSS
notes: not shown: its position and linker are not fixed for the humanized single VHH
B2: SLN0043 VHH-OVA-His (VHH)
chain: DVQLVESGGGSVQAGGSLRLSCAASGVTWSRDWMAWFRQAPGKEREGVAAFVPSIGSTFYVDSVKGRFTISQDNAKNTLFLQMNSLKPEDTAMYYCATDPLWGRKYGGSWSDPSEYNYWGQGTQVTVSSGSIGAASMEFCFDVFKELKVHHANENIFYCPIAIMSALAMVYLGAKDSTRTQINKVVRFDKLPGFGDSIEAQCGTSVNVHSSLRDILNQITKPNDVYSFSLASRLYAEERYPILPEYLQCVKELYRGGLEPINFQTAADQARELINSWVESQTNGIIRNVLQPSSVDSQTAMVLVNAIVFKGLWEKAFKDEDTQAMPFRVTEQESKPVQMMYQIGLFRVASMASEKMKILELPFASGTMSMLVLLPDEVSGLEQLESIINFEKLTEWTSSNVMEERKIKVYLPRMKMEEKYNLTSVLMAMGITDVFSSSANLSGISSAESLKISQAVHAAHAEINEAGREVVGSAEAGVDAASVSEEFRADHPFLFCIKHIATNAVLFFGRCVSP
notes: Tested as recombinant VHH-OVA-His; not shown: His tag
B3: SLN0059 VHH-OVA-His (VHH)
chain: HVQLVESGGGSVQSGGSLRLSCAASGITISNYYMTWFRQAPGKEREGVAGLTRADVTLYADSVKGRFTISRDNAKNTLYLQMNSLKPEDTAMYYCAAADRFRVGLREADFSAWGQGTQVTVSSGSIGAASMEFCFDVFKELKVHHANENIFYCPIAIMSALAMVYLGAKDSTRTQINKVVRFDKLPGFGDSIEAQCGTSVNVHSSLRDILNQITKPNDVYSFSLASRLYAEERYPILPEYLQCVKELYRGGLEPINFQTAADQARELINSWVESQTNGIIRNVLQPSSVDSQTAMVLVNAIVFKGLWEKAFKDEDTQAMPFRVTEQESKPVQMMYQIGLFRVASMASEKMKILELPFASGTMSMLVLLPDEVSGLEQLESIINFEKLTEWTSSNVMEERKIKVYLPRMKMEEKYNLTSVLMAMGITDVFSSSANLSGISSAESLKISQAVHAAHAEINEAGREVVGSAEAGVDAASVSEEFRADHPFLFCIKHIATNAVLFFGRCVSP
notes: as for B2
B4: SLN0042 VHH-OVA-His (VHH)
chain: DVQLVESGGGSVQAGGSLRLSCAASGYTRSFTCMGWFRQAPGKEREGVATINPGTGSTYYADSVKGRFSISQDNAKNTVYLQMNTLKPEDTAMYYCAATQLFGCGSLAKSLFGYWGQGTLVTVSSGSIGAASMEFCFDVFKELKVHHANENIFYCPIAIMSALAMVYLGAKDSTRTQINKVVRFDKLPGFGDSIEAQCGTSVNVHSSLRDILNQITKPNDVYSFSLASRLYAEERYPILPEYLQCVKELYRGGLEPINFQTAADQARELINSWVESQTNGIIRNVLQPSSVDSQTAMVLVNAIVFKGLWEKAFKDEDTQAMPFRVTEQESKPVQMMYQIGLFRVASMASEKMKILELPFASGTMSMLVLLPDEVSGLEQLESIINFEKLTEWTSSNVMEERKIKVYLPRMKMEEKYNLTSVLMAMGITDVFSSSANLSGISSAESLKISQAVHAAHAEINEAGREVVGSAEAGVDAASVSEEFRADHPFLFCIKHIATNAVLFFGRCVSP
notes: as for B2
B5: SLN0064 VHH-OVA-His (VHH)
chain: HVQLVESGGGSVQAGGSLRLSCAASGYSVSWFCMGWFRQAPGLEREGVAVIDVDSIARYGDSVKGRFTISQGNSKDTVYLQMNGLKPEDTAMYYCAAKTERQCRWNWMDWRTYDYPHWGQGTQVTVSSGSIGAASMEFCFDVFKELKVHHANENIFYCPIAIMSALAMVYLGAKDSTRTQINKVVRFDKLPGFGDSIEAQCGTSVNVHSSLRDILNQITKPNDVYSFSLASRLYAEERYPILPEYLQCVKELYRGGLEPINFQTAADQARELINSWVESQTNGIIRNVLQPSSVDSQTAMVLVNAIVFKGLWEKAFKDEDTQAMPFRVTEQESKPVQMMYQIGLFRVASMASEKMKILELPFASGTMSMLVLLPDEVSGLEQLESIINFEKLTEWTSSNVMEERKIKVYLPRMKMEEKYNLTSVLMAMGITDVFSSSANLSGISSAESLKISQAVHAAHAEINEAGREVVGSAEAGVDAASVSEEFRADHPFLFCIKHIATNAVLFFGRCVSP
notes: as for B2
B6: SLN0057 VHH-OVA-His (VHH)
chain: HVQLVESGGGSVQAGGSLRLSCAASGHTYSIYYMAWFRQAPGKEREGVAVIYRGGSTTYADSAKGRFTVSQDNGKNTVYLQMNSLKAEDTAMYYCAAAHVLHVSSLLPGGYPYWGQGTLVTVSSGSIGAASMEFCFDVFKELKVHHANENIFYCPIAIMSALAMVYLGAKDSTRTQINKVVRFDKLPGFGDSIEAQCGTSVNVHSSLRDILNQITKPNDVYSFSLASRLYAEERYPILPEYLQCVKELYRGGLEPINFQTAADQARELINSWVESQTNGIIRNVLQPSSVDSQTAMVLVNAIVFKGLWEKAFKDEDTQAMPFRVTEQESKPVQMMYQIGLFRVASMASEKMKILELPFASGTMSMLVLLPDEVSGLEQLESIINFEKLTEWTSSNVMEERKIKVYLPRMKMEEKYNLTSVLMAMGITDVFSSSANLSGISSAESLKISQAVHAAHAEINEAGREVVGSAEAGVDAASVSEEFRADHPFLFCIKHIATNAVLFFGRCVSP
notes: as for B2
B7: SLN12068 VHH-Fc (Fc fusion)
VHH: EVQLVESGGGLVQPGGSLRLSCAAFEYYYCMGWFRQAPGKGLEGVASFDTSDGSKYYADSVKGRFTISKDNSKNTLYLQMNSLRAEDTAVYYCAARPFYVGGTCLPRLTDFSIWGQGTLVTVSS
notes: as for B1
B8: SLN0062 VHH-OVA-His (VHH)
chain: QVQLVESGGGSVQSGGSLRLSCAASGYTFSRNCMGWFRQTPGKERERVATVYPGGGSTYYADSVKGRFTFSQDNAKNAIYLQMNTLKPEDTGMYYCAASRRIWSCGSGAGSYDYWGQGTQVTVSSGSIGAASMEFCFDVFKELKVHHANENIFYCPIAIMSALAMVYLGAKDSTRTQINKVVRFDKLPGFGDSIEAQCGTSVNVHSSLRDILNQITKPNDVYSFSLASRLYAEERYPILPEYLQCVKELYRGGLEPINFQTAADQARELINSWVESQTNGIIRNVLQPSSVDSQTAMVLVNAIVFKGLWEKAFKDEDTQAMPFRVTEQESKPVQMMYQIGLFRVASMASEKMKILELPFASGTMSMLVLLPDEVSGLEQLESIINFEKLTEWTSSNVMEERKIKVYLPRMKMEEKYNLTSVLMAMGITDVFSSSANLSGISSAESLKISQAVHAAHAEINEAGREVVGSAEAGVDAASVSEEFRADHPFLFCIKHIATNAVLFFGRCVSP
notes: as for B2
B9: SLN12075 VHH-Fc (Fc fusion)
VHH: EVQLVESGGGLVQPGGSLRLSCAASAYIYSSYCMGWFRQAPGKGLERVSVINSDGRTSYADSVKGRFTISRDNSKNTLYLQMNSLRAEDTAVYYCAAVILPPTDGMEYSCNYPAAEYNYWGQGTLVTVSS
notes: as for B1
B10: SLN0066 VHH-OVA-His (negative control VHH) (VHH)
chain: HVQLVESGGGSVQAGGSLRLSCVASGIGHGFNNNCMGWFRQAPGKEREGVAAVYTGGGTPYYADSVKGRFTLSQDNAKNTLYLQMNGLDPEDTAMYYCVADIWRTYRCGAGDTTVFDYRGQGTLVTVSSGSIGAASMEFCFDVFKELKVHHANENIFYCPIAIMSALAMVYLGAKDSTRTQINKVVRFDKLPGFGDSIEAQCGTSVNVHSSLRDILNQITKPNDVYSFSLASRLYAEERYPILPEYLQCVKELYRGGLEPINFQTAADQARELINSWVESQTNGIIRNVLQPSSVDSQTAMVLVNAIVFKGLWEKAFKDEDTQAMPFRVTEQESKPVQMMYQIGLFRVASMASEKMKILELPFASGTMSMLVLLPDEVSGLEQLESIINFEKLTEWTSSNVMEERKIKVYLPRMKMEEKYNLTSVLMAMGITDVFSSSANLSGISSAESLKISQAVHAAHAEINEAGREVVGSAEAGVDAASVSEEFRADHPFLFCIKHIATNAVLFFGRCVSP
notes: not shown: His tag

What was measured:
human properdin = biological target: T1, human properdin (human, UniProt P27918 28-469, biotinylated); experiment: ELISA on biotinylated truncated variants of human properdin, VHH-Fc at 10 µg/ml
T1 construct: Recombinant, made in house; tag not described; In the hemolysis assays the target is the properdin of human serum; also called human properdin-biotin; biotin human Properdin
Experimental: 96-well immunoplates were coated with 100 μl/well 1 μg/ml streptavidin and incubate at 4° C. overnight. Wells were washed with PBST for 3 times and blocked with 200 μl of 1% BSA/PBS at RT for 1 h. […] Plates were washed with PBST for 3 times, 100 μl/well 10 μg/ml VHH-Fcs were added and incubate at RT for 1 h. Plates were washed with PBST for 3 times and add 100 μl goat anti-human Fc-HRP (Sigma, A0170) diluted 1/5000 in 1% BSA/PBST to each well and incubate at RT for 1 h. Plates were then washed as before and add 100 μl TMB substrate and incubate at RT for 15 min. 100 μl per well stop solution was added to stop the reaction, and the plates were read with microplate reader at 450 nm.

[1] = biological target: T2, human transferrin receptor 1 on HEK293F-hTfR1 cells (human, UniProt P02786 1-760); experiment: flow cytometry on HEK293F-hTfR1 cells with or without transferrin
T2 construct: whole, on cells
Experimental: (§1) HEK293F-hTfR1 cells were prepared by transfecting hTfR1-expressing plasmid, with a GFP tag, into HEK293F cells. Stable pool was used for this assay. Briefly, the engineered HEK293F cells expressing hTfR1 were cultured with OPM-293 CD05 medium at 37° C., with 8% CO₂ and saturated humidity in cell shaker. […] The cells were washed twice by centrifugation at 300 g for 5 min at 4° C., before rabbit anti-OVA antibodies and a secondary anti-rabbit IgG-AF647 (all prepared in blocking buffer). The cells were scanned with CytoFLEX (Beckman).

[2] = biological target: T3, human transferrin (Sigma T3309) (human, UniProt P02787 20-698); experiment: flow cytometry on HEK293F-hTfR1 cells with human transferrin, pH 6.0
T3 construct: mature; same polypeptide; also called native human transferrin; hTf
Experimental: as §1

[3] = biological target: T3, human transferrin (Sigma T3309); experiment: flow cytometry on HEK293F-hTfR1 cells with human transferrin, pH 7.4
Experimental: as §1

[4] = biological target: T3, human transferrin (Sigma T3309); experiment: flow cytometry on HEK293F-hTfR1 cells with human transferrin, pH 6.0; grade by % binding (10% > + ≥ 5%); non-specific binding column also +
Experimental: as §1

[5] = biological target: T3, human transferrin (Sigma T3309); experiment: flow cytometry on HEK293F-hTfR1 cells with human transferrin, pH 7.4; grade by % binding (+++ ≥ 15%)
Experimental: as §1

[6] = biological target: T3, human transferrin (Sigma T3309); experiment: flow cytometry on HEK293F-hTfR1 cells with human transferrin, pH 7.4; grade by % binding (10% > + ≥ 5%)
Experimental: as §1

T3 sequence (P02787 20-698): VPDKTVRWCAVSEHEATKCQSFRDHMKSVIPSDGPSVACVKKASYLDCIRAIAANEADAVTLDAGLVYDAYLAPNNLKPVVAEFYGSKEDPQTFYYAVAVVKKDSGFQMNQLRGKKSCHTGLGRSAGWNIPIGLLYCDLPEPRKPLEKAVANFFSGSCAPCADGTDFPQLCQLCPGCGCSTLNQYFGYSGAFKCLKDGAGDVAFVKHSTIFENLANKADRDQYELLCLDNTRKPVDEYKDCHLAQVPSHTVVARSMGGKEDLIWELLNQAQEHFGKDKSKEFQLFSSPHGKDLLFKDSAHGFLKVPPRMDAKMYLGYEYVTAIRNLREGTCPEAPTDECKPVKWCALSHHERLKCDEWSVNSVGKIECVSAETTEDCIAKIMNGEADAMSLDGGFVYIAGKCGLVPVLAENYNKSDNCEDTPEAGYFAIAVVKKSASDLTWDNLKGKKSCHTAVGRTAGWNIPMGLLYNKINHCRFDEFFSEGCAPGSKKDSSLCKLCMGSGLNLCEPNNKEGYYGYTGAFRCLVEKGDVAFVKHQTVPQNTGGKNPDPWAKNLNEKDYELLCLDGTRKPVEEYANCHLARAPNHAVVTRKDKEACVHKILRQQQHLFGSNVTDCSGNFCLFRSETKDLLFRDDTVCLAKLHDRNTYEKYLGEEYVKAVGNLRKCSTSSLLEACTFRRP
T1 sequence (P27918 28-469 limits assumed): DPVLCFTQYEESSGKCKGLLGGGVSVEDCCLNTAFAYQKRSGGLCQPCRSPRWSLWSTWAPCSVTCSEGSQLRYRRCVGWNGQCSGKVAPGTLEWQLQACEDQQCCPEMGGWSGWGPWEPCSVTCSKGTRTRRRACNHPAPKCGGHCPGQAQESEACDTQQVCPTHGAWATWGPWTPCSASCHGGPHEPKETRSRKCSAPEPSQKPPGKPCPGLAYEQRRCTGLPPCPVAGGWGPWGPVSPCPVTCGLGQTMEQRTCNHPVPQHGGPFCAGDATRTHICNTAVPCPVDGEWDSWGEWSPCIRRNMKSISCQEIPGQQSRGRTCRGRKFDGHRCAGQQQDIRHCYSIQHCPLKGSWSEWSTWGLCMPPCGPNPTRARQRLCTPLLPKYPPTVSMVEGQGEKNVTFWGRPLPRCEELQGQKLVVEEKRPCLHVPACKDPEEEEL
T2 sequence (P02786 whole entry): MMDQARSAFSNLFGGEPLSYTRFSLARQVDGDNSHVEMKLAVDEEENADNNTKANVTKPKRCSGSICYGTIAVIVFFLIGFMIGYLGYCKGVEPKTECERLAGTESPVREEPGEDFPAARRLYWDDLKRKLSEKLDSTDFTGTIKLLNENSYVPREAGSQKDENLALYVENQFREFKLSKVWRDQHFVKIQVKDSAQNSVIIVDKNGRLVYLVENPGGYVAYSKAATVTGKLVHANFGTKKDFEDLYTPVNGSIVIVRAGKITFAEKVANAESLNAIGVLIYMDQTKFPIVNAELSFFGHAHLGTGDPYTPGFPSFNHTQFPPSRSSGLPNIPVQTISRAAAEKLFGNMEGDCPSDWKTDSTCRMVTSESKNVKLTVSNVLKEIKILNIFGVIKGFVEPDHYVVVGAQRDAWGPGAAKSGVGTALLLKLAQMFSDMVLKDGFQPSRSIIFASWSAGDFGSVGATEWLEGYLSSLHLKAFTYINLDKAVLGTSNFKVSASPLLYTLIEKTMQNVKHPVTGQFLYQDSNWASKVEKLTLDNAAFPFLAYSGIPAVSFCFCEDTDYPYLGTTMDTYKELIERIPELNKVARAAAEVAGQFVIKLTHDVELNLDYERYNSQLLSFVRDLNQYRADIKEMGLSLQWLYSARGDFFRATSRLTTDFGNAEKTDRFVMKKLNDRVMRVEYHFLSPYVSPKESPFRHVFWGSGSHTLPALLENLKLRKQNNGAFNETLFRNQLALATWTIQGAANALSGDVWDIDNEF

| Binder | binding result (human properdin) | percent binding (flow cytometry, VHH/Tf on hTfR1-overexpressing cells, pH 6.0) [2] [%] | percent binding (flow cytometry, VHH/Tf on hTfR1-overexpressing cells, pH 7.4) [3] [%] | percent binding (flow cytometry, VHH/Tf on hTfR1-overexpressing cells, pH 6.0) [4] [%] | other results |
| --- | --- | --- | --- | --- | --- |
| B1 | binds | – | – | – | – |
| B2 | – | < 5 | – | – | binding result [1]: no binding (tested: 10 µg/mL) |
| B3 | – | – | < 5 | 5 to 10 | – |
| B4 | – | < 5 | – | – | binding result [1]: no binding (tested: 10 µg/mL); percent binding (flow cytometry, VHH/Tf on hTfR1-overexpressing cells, pH 7.4) [5]: ≥ 15% |
| B5 | – | – | – | 5 to 10 | percent binding (flow cytometry, VHH/Tf on hTfR1-overexpressing cells, pH 7.4) [6]: 5 to 10% |
| B6 | – | – | < 5 | 5 to 10 | – |
| B7 | binds | – | – | – | – |
| B8 | – | – | – | 5 to 10 | percent binding (flow cytometry, VHH/Tf on hTfR1-overexpressing cells, pH 7.4) [6]: 5 to 10% |
| B9 | binds | – | – | – | – |
| B10 | – | < 5 | < 5 | – | – |
